Measurements published in publication PMC9958131 (Nature Communications, 2023).

B1: Carboxypeptidase N subunit 2 (protein, UniProt P22792 22-545, looked up)
Carboxypeptidase N subunit 2: CPMGCDCFVQEVFCSDEELATVPLDIPPYTKNIIFVETSFTTLETRAFGSNPNLTKVVFLNTQLCQFRPDAFGGLPRLEDLEVTGSSFLNLSTNIFSNLTSLGKLTLNFNMLEALPEGLFQHLAALESLHLQGNQLQALPRRLFQPLTHLKTLNLAQNLLAQLPEELFHPLTSLQTLKLSNNALSGLPQGVFGKLGSLQELFLDSNNISELPPQVFSQLFCLERLWLQRNAITHLPLSIFASLGNLTFLSLQWNMLRVLPAGLFAHTPCLVGLSLTHNQLETVAEGTFAHLSNLRSLMLSYNAITHLPAGIFRDLEELVKLYLGSNNLTALHPALFQNLSKLELLSLSKNQLTTLPEGIFDTNYNLFNLALHGNPWQCDCHLAYLFNWLQQYTDRLLNIQTYCAGPAYLKGQVVPALNEKQLVCPVTRDHLGFQVTWPDESKAGGSWDLAVQERAARSQCTYSNPEGTVVLACDQAQCRWLNVQLSPQQGSLGLQYNASQEWDLRSSCGSLRLTVSIEARAAGP
B2: Keratin, type II cuticular Hb5 (protein, UniProt P78386 1-507, looked up)
Keratin, type II cuticular Hb5: MSCRSYRISSGCGVTRNFSSCSAVAPKTGNRCCISAAPYRGVSCYRGLTGFGSRSLCNLGSCGPRIAVGGFRAGSCGRSFGYRSGGVCGPSPPCITTVSVNESLLTPLNLEIDPNAQCVKQEEKEQIKSLNSRFAAFIDKVRFLEQQNKLLETKWQFYQNQRCCESNLEPLFSGYIETLRREAECVEADSGRLASELNHVQEVLEGYKKKYEEEVALRATAENEFVVLKKDVDCAYLRKSDLEANVEALVEESSFLRRLYEEEIRVLQAHISDTSVIVKMDNSRDLNMDCIIAEIKAQYDDVASRSRAEAESWYRSKCEEMKATVIRHGETLRRTKEEINELNRMIQRLTAEIENAKCQRAKLEAAVAEAEQQGEAALSDARCKLAELEGALQKAKQDMACLLKEYQEVMNSKLGLDIEIATYRRLLEGEEHRLCEGVGSVNVCVSSSRGGVSCGGLSYSTTPGRQITSGPSAIGGSITVVAPDSCAPCQPRSSSFSCGSSRSVRFA
B3: Keratin, type II cuticular Hb6 (protein, UniProt O43790 1-486, looked up)
Keratin, type II cuticular Hb6: MTCGSYCGGRAFSCISACGPRPGRCCITAAPYRGISCYRGLTGGFGSHSVCGGFRAGSCGRSFGYRSGGVCGPSPPCITTVSVNESLLTPLNLEIDPNAQCVKQEEKEQIKSLNSRFAAFIDKVRFLEQQNKLLETKLQFYQNRECCQSNLEPLFEGYIETLRREAECVEADSGRLASELNHVQEVLEGYKKKYEEEVSLRATAENEFVALKKDVDCAYLRKSDLEANVEALIQEIDFLRRLYEEEIRVLQSHISDTSVVVKLDNSRDLNMDCIIAEIKAQYDDIVTRSRAEAESWYRSKCEEMKATVIRHGETLRRTKEEINELNRMIQRLTAEVENAKCQNSKLEAAVAQSEQQGEAALSDARCKLAELEGALQKAKQDMACLIREYQEVMNSKLGLDIEIATYRRLLEGEEQRLCEGVGSVNVCVSSSRGGVVCGDLCASTTAPVVSTRVSSVPSNSNVVVGTTNACAPSARVGVCGGSCKRC
B4: Complement factor H-related protein 5 (protein, UniProt Q9BXR6 19-569, looked up)
Complement factor H-related …: EGTLCDFPKIHHGFLYDEEDYNPFSQVPTGEVFYYSCEYNFVSPSKSFWTRITCTEEGWSPTPKCLRMCSFPFVKNGHSESSGLIHLEGDTVQIICNTGYSLQNNEKNISCVERGWSTPPICSFTKGECHVPILEANVDAQPKKESYKVGDVLKFSCRKNLIRVGSDSVQCYQFGWSPNFPTCKGQVRSCGPPPQLSNGEVKEIRKEEYGHNEVVEYDCNPNFIINGPKKIQCVDGEWTTLPTCVEQVKTCGYIPELEYGYVQPSVPPYQHGVSVEVNCRNEYAMIGNNMITCINGIWTELPMCVATHQLKRCKIAGVNIKTLLKLSGKEFNHNSRIRYRCSDIFRYRHSVCINGKWNPEVDCTEKREQFCPPPPQIPNAQNMTTTVNYQDGEKVAVLCKENYLLPEAKEIVCKDGRWQSLPRCVESTAYCGPPPSINNGDTTSFPLSVYPPGSTVTYRCQSFYKLQGSVTVTCRNKQWSEPPRCLDPCVVSEENMNKNNIQLKWRNDGKLYAKTGDAVEFQCKFPHKAMISSPPFRAICQEGKFEYPICE
B5: Kininogen-1 (protein, UniProt P01042 19-644, looked up)
Kininogen-1: QESQSEEIDCNDKDLFKAVDAALKKYNSQNQSNNQFVLYRITEATKTVGSDTFYSFKYEIKEGDCPVQSGKTWQDCEYKDAAKAATGECTATVGKRSSTKFSVATQTCQITPAEGPVVTAQYDCLGCVHPISTQSPDLEPILRHGIQYFNNNTQHSSLFMLNEVKRAQRQVVAGLNFRITYSIVQTNCSKENFLFLTPDCKSLWNGDTGECTDNAYIDIQLRIASFSQNCDIYPGKDFVQPPTKICVGCPRDIPTNSPELEETLTHTITKLNAENNATFYFKIDNVKKARVQVVAGKKYFIDFVARETTCSKESNEELTESCETKKLGQSLDCNAEVYVVPWEKKIYPTVNCQPLGMISLMKRPPGFSPFRSSRIGEIKEETTVSPPHTSMAPAQDEERDSGKEQGHTRRHDWGHEKQRKHNLGHGHKHERDQGHGHQRGHGLGHGHEQQHGLGHGHKFKLDDDLEHQGGHVLDHGHKHKHGHGHGKHKNKGKKNGKHNGWKTEHLASSSEDSTTPSAQTQEKTEGPTPIPSLAKPGVTVTFSDFQDSDLIATMMPPISPAPIQSDDDWIPDIQIDPNGLSFNPISDFPDTTSPKCPGRPWKSVSEINPTTQMKESYYFDLTDGLS
B6: Galectin-3-binding protein (protein, UniProt Q08380 19-585, looked up)
Galectin-3-binding protein: VNDGDMRLADGGATNQGRVEIFYRGQWGTVCDNLWDLTDASVVCRALGFENATQALGRAAFGQGSGPIMLDEVQCTGTEASLADCKSLGWLKSNCRHERDAGVVCTNETRSTHTLDLSRELSEALGQIFDSQRGCDLSISVNVQGEDALGFCGHTVILTANLEAQALWKEPGSNVTMSVDAECVPMVRDLLRYFYSRRIDITLSSVKCFHKLASAYGARQLQGYCASLFAILLPQDPSFQMPLDLYAYAVATGDALLEKLCLQFLAWNFEALTQAEAWPSVPTDLLQLLLPRSDLAVPSELALLKAVDTWSWGERASHEEVEGLVEKIRFPMMLPEELFELQFNLSLYWSHEALFQKKTLQALEFHTVPFQLLARYKGLNLTEDTYKPRIYTSPTWSAFVTDSSWSARKSQLVYQSRRGPLVKYSSDYFQAPSDYRYYPYQSFQTPQHPSFLFQDKRVSWSLVYLPTIQSCWNYGFSCSSDELPVLGLTKSGGSDRTIAYENKALMLCEGLFVADVTDFEGWKAAIPSALDTNSSKSTSSFPCPAGHFNGFRTVIRPFYLTNSSGVD
B7: Angiotensinogen (protein, UniProt P01019 25-476, looked up)
Angiotensinogen: DRVYIHPFHLVIHNESTCEQLAKANAGKPKDPTFIPAPIQAKTSPVDEKALQDQLVLVAAKLDTEDKLRAAMVGMLANFLGFRIYGMHSELWGVVHGATVLSPTAVFGTLASLYLGALDHTADRLQAILGVPWKDKNCTSRLDAHKVLSALQAVQGLLVAQGRADSQAQLLLSTVVGVFTAPGLHLKQPFVQGLALYTPVVLPRSLDFTELDVAAEKIDRFMQAVTGWKTGCSLMGASVDSTLAFNTYVHFQGKMKGFSLLAEPQEFWVDNSTSVSVPMLSGMGTFQHWSDIQDNFSVTQVPFTESACLLLIQPHYASDLDKVEGLTFQQNSLNWMKKLSPRTIHLTMPQLVLQGSYDLQDLLAQAELPAILHTELNLQKLSNDRIRVGEVLNSIFFELEADEREPTESTQQLNKPEVLEVTLNRPFLFAVYDQSATALHFLGRVANPLSTA

Test system: recombinant human PAD2 and PAD4
Assay: Citrullination site mapping by trypsin digestion and mass spectrometry; protein-level modifications over native, PAD2- and PAD4-citrullinated samples combined
Assay type: biochemical
Conditions: trypsin digest, Sequest HT search; co-identified proteins in the fibrinogen and vimentin samples (native, PAD2-cit, PAD4-cit); not split by sample or enzyme
Description: Description: Raw mass spectrometry data for proteolytic mapping of fibrinogen, vimentin, and hnRNP A2/B1 by cathepsins B, S, and H (sheets 1-6); citrullination site mapping of fibrinogen and vimentin by trypsin digestion (sheets 7-8); and the natural antigen processing assay with native, PAD2-citrullinated (PAD2-cit), and PAD4-citrullinated (PAD4-cit) fibrinogen (sheets 9-11).

Molecule | Modifications (Deamidated [R...] = citrullinated arginine positions found)
B1 | Deamidated [R89; R449]
B2 | Deamidated [R142]
B3 | Deamidated [R125]
B4 | Deamidated [R69]
B5 | Deamidated [R269; R389; R392]
B6 | Deamidated [R63; R426; R435; R436; R570]
B7 | Deamidated [R237]
